One data set deals with IFP1.2. Put plainly: multiple angle light scattering at 785 nm; self-association (homodimer).
Data set [1] deals with the molecule itself. Nature of the data set: size exclusion chromatography; self-association (homodimer).

Results on two molecules are retold here after US20110177003A1 (CENTRE NATIONAL DE LA RECHERCHE SCIENTIFIQUE, published 2011).

For the molecule IFP1.2, the apparent molecular weight with IFP1.2 came to 80 kDa.

B1: IFP1.0 (DrCBD, 321 amino acids, with the D207H mutation) (other)
chain: MSRDPLPFFPPLYLGGPEITTENCEREPIHIPGSIQPHGALLTADGHSGEVLQMSLNAATFLGQEPTVLRGQTLAALLPEQWPALQAALPPGCPDALQYRATLDWPAAGHLSLTVHRVGELLILEFEPTEAWDSTGPHALRNAMFALESAPNLRALAEVATQTVRELTGFDRVMLYKFAPDATGEVIAEARREGLHAFLGHRFPASHIPAQARALYTRHLLRLTADTRAAAVPLDPVLNPQTNAPTPLGGAVLRATSPMHMQYLRNMGVGSSLSVSVVVGGQLWGLIACHHQTPYVLPPDLRTTLEYLGRLLSLQVQVKEA
modifications: biliverdin chromophore covalently incorporated (residue not stated)
notes: Engineered bacteriophytochrome fragment, reported as a homodimer; also called DrCBD/D207H; drCBD/D207H
Turning to B1, the binding result in data set [1] is reported as “binds”.
